Data taken from patent US20140072613A1, “Compositions and Methods for Treating Cutaneous Scarring” (priority 2012, published 2014).

Columns and labels:
Assay in all cases: biochemical
Assay type in all cases: biochemical
266 human kinases [1] = target: 266 human kinases (Homo sapiens, UniProt Q14680); conditions: MELK(h); 100 μM
In short: (§1)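 Radiometric filter-binding format: a positively charged substrate takes up radiolabelled phosphate from ATP unless the kinase is inhibited, then is captured on a negatively charged filter membrane. Counts from scintillation are expressed relative to a 100% activity control.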

266 human kinases [2] = target: 266 human kinases (Homo sapiens, UniProt O43353); conditions: RIPK2(h); 100 μM
266 human kinases (Homo sapiens, UniProt O43353), sequence (O43353 whole entry): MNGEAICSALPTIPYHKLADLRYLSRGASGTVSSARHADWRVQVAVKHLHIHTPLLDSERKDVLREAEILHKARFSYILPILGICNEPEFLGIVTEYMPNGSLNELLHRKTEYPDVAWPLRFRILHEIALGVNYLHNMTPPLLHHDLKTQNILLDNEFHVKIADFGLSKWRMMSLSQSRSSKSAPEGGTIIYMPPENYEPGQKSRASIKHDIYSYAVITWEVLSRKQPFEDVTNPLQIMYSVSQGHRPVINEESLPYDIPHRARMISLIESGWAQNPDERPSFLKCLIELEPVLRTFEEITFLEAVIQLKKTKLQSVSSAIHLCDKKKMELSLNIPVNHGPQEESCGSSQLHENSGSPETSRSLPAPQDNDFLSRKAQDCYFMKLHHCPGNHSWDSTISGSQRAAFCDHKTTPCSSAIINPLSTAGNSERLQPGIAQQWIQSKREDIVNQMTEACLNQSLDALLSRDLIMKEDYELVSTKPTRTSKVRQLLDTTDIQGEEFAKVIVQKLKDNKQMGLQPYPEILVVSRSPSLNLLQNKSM
In short: as §1

266 human kinases [3] = target: T1, 266 human kinases (Homo sapiens, UniProt P36896); conditions: ALK4(h); 100 μM
T1 sequence (P36896 24-505): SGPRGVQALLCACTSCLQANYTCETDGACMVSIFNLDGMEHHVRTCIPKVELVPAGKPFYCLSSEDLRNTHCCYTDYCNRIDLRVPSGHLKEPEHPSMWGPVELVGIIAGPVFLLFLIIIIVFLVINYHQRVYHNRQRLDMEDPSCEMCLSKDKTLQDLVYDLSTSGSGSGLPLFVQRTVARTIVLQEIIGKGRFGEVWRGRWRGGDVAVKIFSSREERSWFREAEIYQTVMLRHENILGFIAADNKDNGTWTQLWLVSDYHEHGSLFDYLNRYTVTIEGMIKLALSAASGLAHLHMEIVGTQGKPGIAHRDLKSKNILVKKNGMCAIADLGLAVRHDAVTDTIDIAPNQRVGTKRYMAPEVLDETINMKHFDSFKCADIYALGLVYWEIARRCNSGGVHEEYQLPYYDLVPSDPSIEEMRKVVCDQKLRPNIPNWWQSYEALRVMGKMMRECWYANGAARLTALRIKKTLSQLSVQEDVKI
In short: as §1

266 human kinases [4] = target: 266 human kinases (Homo sapiens, UniProt P08922); conditions: Ros(h); 100 μM
In short: as §1

266 human kinases [5] = target: 266 human kinases (Homo sapiens, UniProt Q05397); conditions: FAK(h); 100 μM
266 human kinases (Homo sapiens, UniProt Q05397), sequence (Q05397 whole entry): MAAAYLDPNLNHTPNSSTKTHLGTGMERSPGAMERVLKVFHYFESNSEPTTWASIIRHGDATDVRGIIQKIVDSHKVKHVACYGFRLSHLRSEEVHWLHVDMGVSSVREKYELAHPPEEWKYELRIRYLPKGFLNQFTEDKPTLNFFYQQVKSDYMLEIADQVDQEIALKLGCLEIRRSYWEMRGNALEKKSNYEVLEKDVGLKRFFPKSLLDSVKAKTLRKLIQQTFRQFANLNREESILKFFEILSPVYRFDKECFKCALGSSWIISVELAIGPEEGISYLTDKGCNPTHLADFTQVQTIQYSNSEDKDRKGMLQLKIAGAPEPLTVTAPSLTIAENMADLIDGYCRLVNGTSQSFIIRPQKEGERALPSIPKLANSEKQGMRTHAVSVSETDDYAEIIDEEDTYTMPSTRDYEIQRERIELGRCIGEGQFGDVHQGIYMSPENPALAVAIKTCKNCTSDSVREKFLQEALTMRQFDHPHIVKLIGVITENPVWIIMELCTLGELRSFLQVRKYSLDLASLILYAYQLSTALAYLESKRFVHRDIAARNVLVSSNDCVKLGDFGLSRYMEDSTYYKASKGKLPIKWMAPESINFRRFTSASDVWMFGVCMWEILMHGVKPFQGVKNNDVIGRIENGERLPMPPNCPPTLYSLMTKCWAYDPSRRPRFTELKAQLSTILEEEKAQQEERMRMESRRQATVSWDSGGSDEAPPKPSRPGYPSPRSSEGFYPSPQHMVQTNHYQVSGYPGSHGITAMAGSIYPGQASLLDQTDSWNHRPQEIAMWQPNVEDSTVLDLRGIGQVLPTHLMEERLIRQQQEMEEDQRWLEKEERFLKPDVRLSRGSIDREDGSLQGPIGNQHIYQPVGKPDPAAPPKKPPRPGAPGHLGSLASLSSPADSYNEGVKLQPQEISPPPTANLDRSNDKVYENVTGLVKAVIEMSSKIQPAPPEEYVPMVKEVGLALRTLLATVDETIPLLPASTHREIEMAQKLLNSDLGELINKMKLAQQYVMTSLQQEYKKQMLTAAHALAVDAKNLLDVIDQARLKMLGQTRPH
In short: as §1

266 human kinases [6] = target: T2, 266 human kinases (Homo sapiens, UniProt P41743); conditions: PKCι(h); 100 μM
T2 sequence (P41743 1-596): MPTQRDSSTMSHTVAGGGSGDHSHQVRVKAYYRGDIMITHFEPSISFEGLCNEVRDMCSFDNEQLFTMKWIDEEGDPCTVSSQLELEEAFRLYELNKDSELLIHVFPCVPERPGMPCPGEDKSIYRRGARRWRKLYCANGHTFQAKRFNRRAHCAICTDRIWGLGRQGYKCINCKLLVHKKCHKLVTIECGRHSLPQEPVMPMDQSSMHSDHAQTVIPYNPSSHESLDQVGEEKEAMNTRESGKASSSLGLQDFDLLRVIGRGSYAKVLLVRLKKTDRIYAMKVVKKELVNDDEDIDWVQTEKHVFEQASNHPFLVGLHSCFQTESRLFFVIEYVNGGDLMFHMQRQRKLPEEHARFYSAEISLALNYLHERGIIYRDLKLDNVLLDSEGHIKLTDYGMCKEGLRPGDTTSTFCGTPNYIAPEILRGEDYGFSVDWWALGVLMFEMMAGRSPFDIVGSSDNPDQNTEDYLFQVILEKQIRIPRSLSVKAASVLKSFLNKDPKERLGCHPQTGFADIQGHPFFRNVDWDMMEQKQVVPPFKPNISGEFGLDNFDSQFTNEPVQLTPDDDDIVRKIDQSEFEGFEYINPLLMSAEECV
In short: as §1

266 human kinases [7] = target: T3, 266 human kinases (Homo sapiens, UniProt Q9BXA7); conditions: TSSK1(h); 100 μM
T3 sequence (Q9BXA7 1-367): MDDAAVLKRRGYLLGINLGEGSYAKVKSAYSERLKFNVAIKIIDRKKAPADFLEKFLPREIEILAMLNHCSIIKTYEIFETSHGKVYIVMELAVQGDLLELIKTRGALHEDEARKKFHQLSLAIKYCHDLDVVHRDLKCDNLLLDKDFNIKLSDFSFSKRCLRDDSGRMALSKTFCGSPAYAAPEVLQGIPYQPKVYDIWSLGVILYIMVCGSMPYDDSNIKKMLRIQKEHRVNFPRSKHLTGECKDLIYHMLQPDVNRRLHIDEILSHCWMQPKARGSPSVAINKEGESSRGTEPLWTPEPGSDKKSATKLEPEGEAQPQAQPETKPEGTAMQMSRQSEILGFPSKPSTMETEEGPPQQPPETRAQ
In short: as §1

266 human kinases [8] = target: 266 human kinases (Homo sapiens, UniProt P06241); conditions: Fyn(h); 100 μM
266 human kinases (Homo sapiens, UniProt P06241), sequence (P06241 whole entry): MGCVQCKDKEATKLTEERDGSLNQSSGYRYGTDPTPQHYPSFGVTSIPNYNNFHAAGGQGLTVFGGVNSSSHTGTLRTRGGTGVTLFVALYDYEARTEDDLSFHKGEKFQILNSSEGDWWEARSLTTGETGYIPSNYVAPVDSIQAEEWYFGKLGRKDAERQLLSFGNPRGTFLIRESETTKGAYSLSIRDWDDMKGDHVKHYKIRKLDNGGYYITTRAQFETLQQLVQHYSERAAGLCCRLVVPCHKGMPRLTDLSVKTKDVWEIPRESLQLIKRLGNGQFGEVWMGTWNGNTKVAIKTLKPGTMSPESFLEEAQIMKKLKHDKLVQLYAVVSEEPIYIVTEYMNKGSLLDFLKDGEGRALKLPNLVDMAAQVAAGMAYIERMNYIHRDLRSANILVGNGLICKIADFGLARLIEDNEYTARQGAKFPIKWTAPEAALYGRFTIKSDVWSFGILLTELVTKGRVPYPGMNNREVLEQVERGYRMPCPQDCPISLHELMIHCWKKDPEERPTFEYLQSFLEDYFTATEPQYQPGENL
In short: as §1

266 human kinases [9] = target: 266 human kinases (Homo sapiens, UniProt Q9BYT3); conditions: STK33(h); 100 μM
266 human kinases (Homo sapiens, UniProt Q9BYT3), sequence (Q9BYT3 whole entry): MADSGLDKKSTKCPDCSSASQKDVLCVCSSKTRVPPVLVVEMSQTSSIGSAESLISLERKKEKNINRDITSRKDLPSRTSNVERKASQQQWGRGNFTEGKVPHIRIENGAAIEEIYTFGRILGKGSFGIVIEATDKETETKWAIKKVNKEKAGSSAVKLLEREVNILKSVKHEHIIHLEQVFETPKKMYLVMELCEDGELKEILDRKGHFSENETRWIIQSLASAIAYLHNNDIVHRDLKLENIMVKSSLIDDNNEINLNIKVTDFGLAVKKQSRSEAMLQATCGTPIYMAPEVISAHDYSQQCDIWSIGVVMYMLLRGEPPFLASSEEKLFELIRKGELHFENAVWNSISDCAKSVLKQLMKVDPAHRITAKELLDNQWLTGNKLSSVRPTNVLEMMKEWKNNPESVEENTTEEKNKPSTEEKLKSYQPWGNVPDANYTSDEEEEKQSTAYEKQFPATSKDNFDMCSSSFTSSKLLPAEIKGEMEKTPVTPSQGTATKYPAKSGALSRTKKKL
In short: as §1

266 human kinases [10] = target: 266 human kinases (Homo sapiens, UniProt Q13043); conditions: MST1(h); 100 μM
266 human kinases (Homo sapiens, UniProt Q13043), sequence (Q13043 whole entry): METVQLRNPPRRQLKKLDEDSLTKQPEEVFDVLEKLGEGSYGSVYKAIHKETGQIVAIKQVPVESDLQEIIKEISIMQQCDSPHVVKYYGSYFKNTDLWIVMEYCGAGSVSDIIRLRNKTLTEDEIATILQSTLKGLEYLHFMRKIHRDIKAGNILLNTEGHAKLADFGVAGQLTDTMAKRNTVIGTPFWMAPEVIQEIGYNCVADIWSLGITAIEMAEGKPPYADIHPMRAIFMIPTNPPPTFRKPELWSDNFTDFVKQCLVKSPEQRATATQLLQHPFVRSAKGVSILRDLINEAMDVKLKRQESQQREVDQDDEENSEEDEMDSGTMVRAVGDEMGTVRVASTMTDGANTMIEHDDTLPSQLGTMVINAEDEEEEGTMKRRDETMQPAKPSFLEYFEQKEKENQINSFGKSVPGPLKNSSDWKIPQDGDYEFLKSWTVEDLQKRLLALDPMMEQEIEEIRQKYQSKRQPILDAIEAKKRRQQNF
In short: as §1

266 human kinases [11] = target: 266 human kinases (Homo sapiens, UniProt Q14289); conditions: Pyk2 (h); 100 μM
In short: as §1

266 human kinases [12] = target: 266 human kinases (Homo sapiens, UniProt P08581, M1250T); conditions: Met(M1268T)(h); 100 μM
In short: as §1

266 human kinases [13] = target: 266 human kinases (Homo sapiens, UniProt P49761); conditions: CLK3(h); 100 μM
266 human kinases (Homo sapiens, UniProt P49761), sequence (P49761 whole entry): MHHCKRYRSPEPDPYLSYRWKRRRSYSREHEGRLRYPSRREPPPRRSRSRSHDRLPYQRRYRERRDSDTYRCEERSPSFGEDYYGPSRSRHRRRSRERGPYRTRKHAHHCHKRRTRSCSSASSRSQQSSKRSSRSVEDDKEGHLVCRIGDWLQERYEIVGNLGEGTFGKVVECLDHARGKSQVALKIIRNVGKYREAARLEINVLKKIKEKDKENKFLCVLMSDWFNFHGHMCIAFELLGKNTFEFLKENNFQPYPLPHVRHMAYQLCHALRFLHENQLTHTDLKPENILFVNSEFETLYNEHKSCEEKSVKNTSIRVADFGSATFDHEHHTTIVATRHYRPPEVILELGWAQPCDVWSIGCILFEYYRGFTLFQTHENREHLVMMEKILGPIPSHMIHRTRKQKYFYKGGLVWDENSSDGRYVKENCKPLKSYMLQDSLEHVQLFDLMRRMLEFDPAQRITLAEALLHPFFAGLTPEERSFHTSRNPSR
In short: as §1

266 human kinases [14] = target: 266 human kinases (Homo sapiens, UniProt P31751); conditions: PKBβ(h); 100 μM
266 human kinases (Homo sapiens, UniProt P31751), sequence (P31751 whole entry): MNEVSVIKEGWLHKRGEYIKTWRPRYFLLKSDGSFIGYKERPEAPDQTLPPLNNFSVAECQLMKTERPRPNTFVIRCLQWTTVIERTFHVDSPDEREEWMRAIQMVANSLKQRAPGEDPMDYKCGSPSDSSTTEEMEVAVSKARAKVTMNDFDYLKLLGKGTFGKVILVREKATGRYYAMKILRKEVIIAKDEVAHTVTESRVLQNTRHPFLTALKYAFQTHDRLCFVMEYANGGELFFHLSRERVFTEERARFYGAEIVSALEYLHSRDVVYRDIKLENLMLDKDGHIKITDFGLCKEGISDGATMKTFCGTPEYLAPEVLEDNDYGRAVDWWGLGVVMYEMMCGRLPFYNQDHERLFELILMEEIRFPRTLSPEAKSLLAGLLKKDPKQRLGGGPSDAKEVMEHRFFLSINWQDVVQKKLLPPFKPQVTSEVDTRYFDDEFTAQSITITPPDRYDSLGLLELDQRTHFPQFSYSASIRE
In short: as §1

266 human kinases [15] = target: 266 human kinases (Homo sapiens, UniProt P22455); conditions: FGFR4(h); 100 μM
In short: as §1

266 human kinases (Homo sapiens, UniProt Q14680), sequence (Q14680 whole entry): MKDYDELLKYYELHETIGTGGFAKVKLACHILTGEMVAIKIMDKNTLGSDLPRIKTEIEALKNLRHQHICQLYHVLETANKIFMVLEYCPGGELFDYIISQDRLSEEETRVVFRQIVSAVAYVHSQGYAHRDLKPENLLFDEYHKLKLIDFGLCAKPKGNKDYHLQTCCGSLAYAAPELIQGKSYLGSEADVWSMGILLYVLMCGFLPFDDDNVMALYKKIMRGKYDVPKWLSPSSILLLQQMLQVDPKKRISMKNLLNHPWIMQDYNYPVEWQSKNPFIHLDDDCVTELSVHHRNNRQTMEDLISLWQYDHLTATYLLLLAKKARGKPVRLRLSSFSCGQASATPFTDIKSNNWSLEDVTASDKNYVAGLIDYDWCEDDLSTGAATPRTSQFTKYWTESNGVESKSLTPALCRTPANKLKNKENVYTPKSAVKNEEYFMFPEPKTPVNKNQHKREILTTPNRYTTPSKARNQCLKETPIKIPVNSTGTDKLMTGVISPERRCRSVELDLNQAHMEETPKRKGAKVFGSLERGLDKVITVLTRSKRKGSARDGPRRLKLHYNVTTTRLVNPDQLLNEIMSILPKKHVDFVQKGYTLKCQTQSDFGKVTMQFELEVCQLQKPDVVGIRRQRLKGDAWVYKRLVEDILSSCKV

Sequence | % activity (266 human kinases [1]) [%] | % activity (266 human kinases [2]) [%] | % activity (266 human kinases [3]) [%] | % activity (266 human kinases [4]) [%] | % activity (266 human kinases [5]) [%] | % activity (266 human kinases [6]) [%] | % activity (266 human kinases [7]) [%] | % activity (266 human kinases [8]) [%] | % activity (266 human kinases [9]) [%] | % activity (266 human kinases [10]) [%] | % activity (266 human kinases [11]) [%] | % activity (266 human kinases [12]) [%] | % activity (266 human kinases [13]) [%] | % activity (266 human kinases [14]) [%] | % activity (266 human kinases [15]) [%]
HRRIKAWLKKIKALARQLGVAA (mammal) [MMI-0500] | 0 | 30 | 81 | 150 | 94 | 7 | 46 | 83 | 16 | 3 | 46 | 239 | 76 | 21 | 3
YARAAARQARAKALNRQLGVA (mammal) [MMI-0200] | 59 | 98 | 152 | 86 | 110 | 97 | 98 | 75 | 98 | 72 | 127 | 143 | 76 | 250 | 75
